Changes are numbered by the printed parent chain. Blank lines part the entries; values can stand above or below the binder they belong to.
Key:
[1] = biological target: T1, human integrin α5β1 on cells (endogenous, HUVEC; tumor or endothelial-expressed) (human, UniProt P08648 42-1049; P05556 21-798); test: cell-based or functional assay
[2] = biological target: T1, human integrin α5β1 on cells …; test: cell-based or functional assay; remark: listed apart in the source
[3] = biological target: T1, human integrin α5β1 on cells …; test: FACS on HUVEC (endogenous human α5β1), GeoMean against mAb concentration, fitted; experiment 030207
[4] = biological target: T1, human integrin α5β1 on cells …; test: FACS on HUVEC (endogenous human α5β1), GeoMean against mAb concentration, fitted; experiment 031307
Protocol: The 22B5/DLE, 24C7/DLE, 1 D9/DLE, and 2D2/DLE antibodies were tested for their binding affinity to cell surface integrin α5 using a FACS assay, employing endogenous human integrin α5β1 expressing cells (HUVEC). Briefly, the cells were detached using trypsin-EDTA and washed with cold PBS. After being aliquoted into 96-well plates, the cells were blocked by serum and incubated with different concentrations of specific mAb for 1 hour at 4° C. Subsequently, the cells were washed and incubated with an anti-human κ secondary antibody conjugated with the R-PE fluorophore and analyzed using a FACSCalibur flow cytometer. 10,000 events were collected for each sample without applying any gating. For KD determination, the Geometric Mean of each sample histogram was calculated and plotted as a function of the mAb concentration. KD was calculated after fitting to a two-state equilibrium model.

T1 sequence (P08648 42-1049, chain 1 of 2): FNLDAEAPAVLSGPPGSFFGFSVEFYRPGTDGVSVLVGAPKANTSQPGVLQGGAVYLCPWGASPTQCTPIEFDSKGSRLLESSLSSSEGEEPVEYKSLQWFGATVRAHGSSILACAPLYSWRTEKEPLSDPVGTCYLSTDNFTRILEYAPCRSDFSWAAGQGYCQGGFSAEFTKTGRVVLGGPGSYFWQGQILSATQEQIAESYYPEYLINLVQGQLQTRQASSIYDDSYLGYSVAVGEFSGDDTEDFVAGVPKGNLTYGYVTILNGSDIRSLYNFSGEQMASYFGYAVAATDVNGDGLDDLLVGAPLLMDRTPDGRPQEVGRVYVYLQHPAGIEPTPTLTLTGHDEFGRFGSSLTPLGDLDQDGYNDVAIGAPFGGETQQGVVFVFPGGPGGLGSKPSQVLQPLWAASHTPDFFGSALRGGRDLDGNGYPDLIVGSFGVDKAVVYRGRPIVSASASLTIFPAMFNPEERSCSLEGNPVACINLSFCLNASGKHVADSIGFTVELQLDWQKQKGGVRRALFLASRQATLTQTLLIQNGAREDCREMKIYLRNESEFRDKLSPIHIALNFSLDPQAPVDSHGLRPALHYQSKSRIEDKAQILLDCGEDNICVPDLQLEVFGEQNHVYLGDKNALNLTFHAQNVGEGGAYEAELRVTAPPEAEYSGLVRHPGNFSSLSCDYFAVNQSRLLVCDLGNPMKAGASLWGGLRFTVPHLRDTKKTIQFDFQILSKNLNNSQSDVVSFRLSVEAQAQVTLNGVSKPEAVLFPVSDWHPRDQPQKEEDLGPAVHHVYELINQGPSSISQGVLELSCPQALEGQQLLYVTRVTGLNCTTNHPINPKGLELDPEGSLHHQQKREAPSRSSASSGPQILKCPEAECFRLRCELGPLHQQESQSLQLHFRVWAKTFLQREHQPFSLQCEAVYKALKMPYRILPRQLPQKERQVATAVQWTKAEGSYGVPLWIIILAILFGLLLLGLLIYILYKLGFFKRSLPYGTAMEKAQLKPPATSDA
T1 sequence (P05556 21-798, chain 2 of 2): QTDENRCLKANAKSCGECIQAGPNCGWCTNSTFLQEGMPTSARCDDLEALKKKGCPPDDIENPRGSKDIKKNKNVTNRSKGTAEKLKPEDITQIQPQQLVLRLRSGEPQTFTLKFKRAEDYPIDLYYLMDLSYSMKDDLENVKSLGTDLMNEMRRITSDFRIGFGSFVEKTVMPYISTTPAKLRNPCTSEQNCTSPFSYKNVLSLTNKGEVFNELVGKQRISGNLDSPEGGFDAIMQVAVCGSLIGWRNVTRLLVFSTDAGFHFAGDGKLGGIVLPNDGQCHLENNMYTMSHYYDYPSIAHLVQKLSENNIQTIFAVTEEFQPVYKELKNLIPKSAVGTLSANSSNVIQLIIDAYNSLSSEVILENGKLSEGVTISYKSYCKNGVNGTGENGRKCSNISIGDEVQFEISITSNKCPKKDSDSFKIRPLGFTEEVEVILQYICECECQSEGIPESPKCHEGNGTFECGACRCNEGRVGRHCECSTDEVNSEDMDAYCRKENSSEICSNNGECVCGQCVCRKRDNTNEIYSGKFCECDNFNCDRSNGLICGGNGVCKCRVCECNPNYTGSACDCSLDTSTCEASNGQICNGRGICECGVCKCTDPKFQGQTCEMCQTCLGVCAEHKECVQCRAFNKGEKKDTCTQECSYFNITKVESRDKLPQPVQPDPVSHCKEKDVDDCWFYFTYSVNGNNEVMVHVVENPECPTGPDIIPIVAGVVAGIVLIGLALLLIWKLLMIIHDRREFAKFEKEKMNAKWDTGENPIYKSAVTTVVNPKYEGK

- IC50, inhibition of HUVEC adhesion to fibronectin (fluorescence 485/535 nM) [1]: 0.37 nM
B5: 22B5 IgG2 (antibody, V domains shown)
VH: QLQLQESGPGLVKPSETLSLTCTVSGGSISSSSYWGWIRQPPGKGLEWIGSIYYSGRNYNNPSLKSRVTISVDTSKNQFSLKLSSVTAADTAVYYCARHYYGSGSSYYYYDLDVWGQGTTVTVSS
VL: EIVLTQSPATLSLSPGERATLSCRASQSVSSYLAWYQQKPGQAPRLLIYDASNRATGIPARFSGSGSGTDFTLTISSLEPEDFAVYYCQQRSNWPLTFGGGTKVEIK

- Kd [4]: 7.32 nM
- Kd [3]: 8.78 nM
B6: 2D2/DLE (antibody, IgG1, V domains shown)
VH: QVQLVESGGGVVQPGRSLRLSCAASGFTFSSYAMHWVRQAPGKGLEWVAVISFDGSTKYYADSVKGRFTISRDNSKNTLDLQMNSLRAEDTALYYCAREYWGTYYYGTDVWGQGTTVIVSS
VL: B5 VL with S30N, L96R, G100Q
notes: Constant regions: see the note of 1D9/DLE; also called 2D2 IgG1 DLE

Second part, the binder before the results:

B1: 22B5 wild type IgG1 (antibody, V domains shown)
VH: B5 VH
VL: B5 VL
notes: Human IgG1 with wild type Fc (no DLE mutations); also called 22B5 wt IgG1; wt 22B5 IgG1
- IC50, inhibition of HUVEC adhesion to fibronectin (fluorescence 485/535 nM) [1]: 0.43 nM
- ADCC EC50, human PBMCs [2]: 0.23 nM
- Kd [3]: 1.95 nM

B2: 22B5 IgG4 (antibody, V domains shown)
VH: B5 VH
VL: B5 VL
- IC50, inhibition of HUVEC adhesion to fibronectin (fluorescence 485/535 nM) [1]: 0.57 nM

B3: 1D9 (antibody, IgG1, V domains shown)
VH: QVQLVESGGGVVQPGRSLRLSCAASGFPFSTYAMHWVRQAPGKGLEWVAVISYDGSNKYYADSVKGRFTISRDNSKNTLYLQMNSLRAEDTAVYYCARESPPIYYYYGMDVWGQGTTVTVSS
VL: B5 VL with L96R, G100Q
notes: also called 1D9 G1; I D9
- Kd [3]: 1.69 nM

B4: 1D9/DLE (antibody, V domains shown)
VH: B3 VH
VL: B5 VL with L96R, G100Q
notes: also called 1D9 IgG1 DLE; 1D9 G1 DLE
- Kd [4]: 1.49 nM
- Kd [3]: 1.68 nM

— patent US20100330078A1 (Pfizer, published 2010)
